To fix the notation:
B1: DLC1 (parent)
chain: KRSWEEHVTHWMGQPFNSDDRNTA
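Also: lentivirally expressed fusions sorted by FACS into six bins by GFP to DsRed ratio, PSI derived from sequencing read proportions per bin multiplied by bin number.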

Variants of B1 are the subject of the series. Briefly: protein stability index of a GFP-peptide fusion (GPS, HEK-293T) (PSI 1-6); higher = more stable. The following applies: c terminus: a fixed tail appended.
Turning to KRSWEEHVTHWMGQPANSDDRNTA [F16A], the protein stability index is 2.54. For KRSWEEHVTHWMGQPDNSDDRNTA [F16D], the protein stability index was found to be 2.59. Take KRSWEEHVTHWMGQPCNSDDRNTA [F16C]: the protein stability index is 2.66. In the case of KRSWEEHVTHWMGQPGNSDDRNTA [F16G], the protein stability index came out at 3.14.

As for KRSWEEHVTHWMGQPHNSDDRNTA [F16H], the protein stability index amounted to 2.77. For KRSWEEHVTHWMGQPINSDDRNTA [F16I], the protein stability index is 2.63. For KRSWEEHVTHWMGQPENSDDRNTA [F16E] the value was 3.08; for KRSWEEHVTHWSGQPFNSDDRNTA [M12S], 2.57; for KRSWEEHVTHWHGQPFNSDDRNTA [M12H], 2.94.

Consider KRSWEEHVTHWAGQPFNSDDRNTA [M12A], for which the protein stability index came to 2.44. For KRSWEEHVTHWTGQPFNSDDRNTA [M12T], the protein stability index was determined as 3.34. With KRSWEEHVTHWVGQPFNSDDRNTA [M12V], the protein stability index worked out at 2.73. Take KRSWEEHVTHWPGQPFNSDDRNTA [M12P]: the protein stability index stood at 3.67. The same measure for KRSWEEHVTHWCGQPFNSDDRNTA [M12C]: 2.97; for KRSWEEHVTHWFGQPFNSDDRNTA [M12F]: 2.94; for KRSWEEHVTHWYGQPFNSDDRNTA [M12Y]: 3.21.

As for KRSWEEHVTHWQGQPFNSDDRNTA [M12Q], the protein stability index stood at 2.78. For KRSWEEHVTHWEGQPFNSDDRNTA [M12E] the value was 2.32. In the case of KRSWEEHVTHWDGQPFNSDDRNTA [M12D], the protein stability index amounted to 2.7. The same measure for KRSWEEHVTHWWGQPFNSDDRNTA [M12W]: 1.94.

With KRSWEEHVTHWLGQPFNSDDRNTA [M12L], the protein stability index turned out to be 2.94. For the variant KRSWEEHVTHWNGQPFNSDDRNTA [M12N], the protein stability index came out at 2.79. The same measure for KRSWEEHVTHWGGQPFNSDDRNTA [M12G]: 2.63. Regarding KRSWEEHVTHWRGQPFNSDDRNTA [M12R], the protein stability index worked out at 2.49. The same measure for KRSWEEHVTHWKGQPFNSDDRNTA [M12K]: 2.98; for KRSWEEHVTHWIGQPFNSDDRNTA [M12I]: 2.53; for KRSWEEHVTHNMGQPFNSDDRNTA [W11N]: 2.26. For the variant KRSWEEHVTHVMGQPFNSDDRNTA [W11V], the protein stability index was found to be 3.19. The same measure for KRSWEEHVTHKMGQPFNSDDRNTA [W11K]: 3.61; for KRSWEEHVTHLMGQPFNSDDRNTA [W11L]: 2.85; for KRSWEEHVTHTMGQPFNSDDRNTA [W11T]: 2.49. For KRSWEEHVTHMMGQPFNSDDRNTA [W11M] the value was 2.54; for KRSWEEHVTHQMGQPFNSDDRNTA [W11Q], 2.12; for KRSWEEHVTHYMGQPFNSDDRNTA [W11Y], 2.82. On to KRSWEEHVTHPMGQPFNSDDRNTA [W11P], for which the protein stability index was determined as 3.54. As for KRSWEEHVTHRMGQPFNSDDRNTA [W11R], the protein stability index was found to be 3.29. In the case of KRSWEEHVTHSMGQPFNSDDRNTA [W11S], the protein stability index was 2.53.

With KRSWEEHVTHWMGCPFNSDDRNTA [Q14C], the protein stability index amounted to 3.01. For the variant KRSWEEHVTHWMGDPFNSDDRNTA [Q14D], the protein stability index was 2.69. On to KRSWEEHVTHWMGTPFNSDDRNTA [Q14T], for which the protein stability index was 2.31.

Consider KRSWEEHVTHWMGSPFNSDDRNTA [Q14S], for which the protein stability index came to 2.37. Consider KRSWEEHVTHWMGYPFNSDDRNTA [Q14Y], for which the protein stability index was found to be 2.6. With KRSWEEHVTHWMGRPFNSDDRNTA [Q14R], the protein stability index was 3.47. On to KRSWEEHVTHWMGVPFNSDDRNTA [Q14V], for which the protein stability index came out at 3.15.

On to KRSWEEHVTHWMGIPFNSDDRNTA [Q14I], for which the protein stability index is 2.44. The same measure for KRSWEEHVTHWMGEPFNSDDRNTA [Q14E]: 1.71; for KRSWEEHVTHWMGMPFNSDDRNTA [Q14M]: 2.34. For KRSWEEHVTHWMGGPFNSDDRNTA [Q14G] the value was 2.29; for KRSWEEHVTHWMGKPFNSDDRNTA [Q14K], 2.82.

In the case of KRSWEEHVTHWMGHPFNSDDRNTA [Q14H], the protein stability index worked out at 2.36. KRSWEEHVTHWMGAPFNSDDRNTA [Q14A]: the protein stability index was 3.23.

For KRSWEEHVTHWMGWPFNSDDRNTA [Q14W], the protein stability index amounted to 2.03. In the case of KRSWEEHVTHWMGNPFNSDDRNTA [Q14N], the protein stability index came to 2.75. For KRSWEEHVTHWMGFPFNSDDRNTA [Q14F] the value was 2.65; for KRSWEEHVTHWMGPPFNSDDRNTA [Q14P], 2.84; for KRSWEEHVTHWMGLPFNSDDRNTA [Q14L], 2.64. As for KRSWEEHVTHWMGQQFNSDDRNTA [P15Q], the protein stability index turned out to be 2.1.

In the case of KRSWEEHVTHWMGQHFNSDDRNTA [P15H], the protein stability index came out at 2.66. In the case of KRSWEEHVTHWMGQEFNSDDRNTA [P15E], the protein stability index stood at 3.45. As for KRSWEEHVTHWMGQIFNSDDRNTA [P15I], the protein stability index is 1.56. For KRSWEEHVTHWMGQMFNSDDRNTA [P15M] the value was 2.17. For the variant KRSWEEHVTHWMGQDFNSDDRNTA [P15D], the protein stability index was 1.63.

As for KRSWEEHVTHWMGQSFNSDDRNTA [P15S], the protein stability index is 2.3. Regarding KRSWEEHVTHWMGQNFNSDDRNTA [P15N], the protein stability index came to 2.48. As for KRSWEEHVTHWMGQFFNSDDRNTA [P15F], the protein stability index was 2.78. In the case of KRSWEEHVTHWMGQCFNSDDRNTA [P15C], the protein stability index amounted to 2.35. The same measure for KRSWEEHVTHWMGQWFNSDDRNTA [P15W]: 2.92; for KRSWEEHVTHWMGQGFNSDDRNTA [P15G]: 2.43. As to KRSWEEHVTHWMGQTFNSDDRNTA [P15T], the protein stability index came out at 2.29. For the variant KRSWEEHVTHWMGQVFNSDDRNTA [P15V], the protein stability index was 2.27. For KRSWEEHVTHWMGQRFNSDDRNTA [P15R], the protein stability index was 2.41. The same measure for KRSWEEHVTHWMGQYFNSDDRNTA [P15Y]: 2.79.

Consider KRSWEEHVTHWMGQAFNSDDRNTA [P15A], for which the protein stability index stood at 2.95. For KRSWEEHVTHWMGQLFNSDDRNTA [P15L], the protein stability index came to 3.4. On to KRSWEEHVTHWMGQKFNSDDRNTA [P15K], for which the protein stability index was 2.85.

As for KRSWEEHVTHWMSQPFNSDDRNTA [G13S], the protein stability index came out at 2.63.

Consider KRSWEEHVTHWMWQPFNSDDRNTA [G13W], for which the protein stability index turned out to be 1.95.

With KRSWEEHVTHWMLQPFNSDDRNTA [G13L], the protein stability index was determined as 2.73.

For KRSWEEHVTHWMDQPFNSDDRNTA [G13D], the protein stability index is 2.19. With KRSWEEHVTHWMHQPFNSDDRNTA [G13H], the protein stability index came out at 2.56. As for KRSWEEHVTHWMVQPFNSDDRNTA [G13V], the protein stability index was 3.04.

With KRSWEEHVTHWMPQPFNSDDRNTA [G13P], the protein stability index was determined as 2.88.

Turning to KRSWEEHVTHWMAQPFNSDDRNTA [G13A], the protein stability index came to 2.53. Take KRSWEEHVTHWMIQPFNSDDRNTA [G13I]: the protein stability index was found to be 2.25.

Regarding KRSWEEHVTHWMEQPFNSDDRNTA [G13E], the protein stability index came to 2.61. As to KRSWEEHVTHWMCQPFNSDDRNTA [G13C], the protein stability index came out at 2.1.

Consider KRSWEEHVTHWMQQPFNSDDRNTA [G13Q], for which the protein stability index worked out at 2.44. Consider KRSWEEHVTHWMFQPFNSDDRNTA [G13F], for which the protein stability index is 1.82.

Regarding KRSWEEHVTHWMYQPFNSDDRNTA [G13Y], the protein stability index worked out at 2.08.

As for KRSWEEHVTHWMMQPFNSDDRNTA [G13M], the protein stability index was found to be 2.44. In the case of KRSWEEHVTHWMNQPFNSDDRNTA [G13N], the protein stability index was 2.14. With KRSWEEHVTHWMRQPFNSDDRNTA [G13R], the protein stability index is 2.23. For KRSWEEHVTHWMKQPFNSDDRNTA [G13K] the value was 2.13; for KRSWEEHVTHWMTQPFNSDDRNTA [G13T], 2.18.

The values above are taken from the supplement of paper PMC10567573.
